The values that follow come from patent US20020081280A1.

Several values for one entry are separate records, joined by “and”; a condition that tells them apart may be missing. Identical values can stand only once.

In test [1] the target is coxsackievirus and adenovirus receptor (CAR) on human cells (human) (UniProt P78310). Put plainly: cell-based or functional assay.
Test [2] concerns the target cellular integrins on HUVEC cells. Description: 125I-Ad5lucRGD binding to HUVEC cells at 4 °C, penton base at 100 µg/ml; competitor Ad5lucRGD.

Sequence of UniProt P78310 (P78310 20-365): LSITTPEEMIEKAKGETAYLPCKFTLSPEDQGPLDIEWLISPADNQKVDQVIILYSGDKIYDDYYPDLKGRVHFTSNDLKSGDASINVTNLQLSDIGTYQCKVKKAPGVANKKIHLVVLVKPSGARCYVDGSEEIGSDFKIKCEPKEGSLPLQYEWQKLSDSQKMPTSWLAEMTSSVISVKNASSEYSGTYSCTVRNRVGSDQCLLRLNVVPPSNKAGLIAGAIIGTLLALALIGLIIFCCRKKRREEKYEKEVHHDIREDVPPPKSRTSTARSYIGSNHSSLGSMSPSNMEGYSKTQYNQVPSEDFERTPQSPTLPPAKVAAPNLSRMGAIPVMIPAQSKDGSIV

With “AdCMVLuc virions (E1-deleted Ad5 vector with unmodified wild-type fibers) (from UniProt P11818 1-581)”, in test [1], the blockade of luciferase gene transfer by knob competition, HeLa and SCCHN cell lines (FaDu, SCC-4, SCC-25) is greater than 90%; the gene transfer to SKOV3.ipl cells blocked by fiber knob was greater than 90%; the luciferase activity in 293 cells blocked by recombinant knob protein (100 µg/ml) lay within 85 to 93%; the luciferase activity in SKOV3.ipl cells blocked by excess fiber knob was 82% and 91%. In addition, in test [1], the luciferase activity in ovarian cancer ascites cells blocked by excess fiber knob came to 90%; the reduction of luciferase activity in CaOV-3 cells by fiber knob blockade, dose 3x10^6 PFU came to 55%; the reduction of luciferase activity in UCI-101 cells by the fiber knob block was 94% and 97%.
Consider “recombinant human adenovirus serotype 2 penton base protein, expressed in Sf9 cells (from UniProt P03276 1-571)”, for which, in test [2], the percent decrease of bound virus radioactivity came out at 25%.
